Experiment [1] deals with T1, human PD-L1 on CHO-K1 cells overexpressing human PD-L1 (human, UniProt Q9NZQ7 19-290).
T1 construct: whole, on cells; also called CHO-K1/hPD-L1; CHO-K1-hPD-L1
Description: flow cytometry on CHO-K1 cells overexpressing human PD-L1 (CHO-K1/hPD-L1). As to the method:
(§1) In the example, in order to study the in vitro binding activity of the PD-L1 antigen-binding protein to human/cynomolgus monkey PD-L1, cell-level binding experiments were performed using CHO-K1 cell strains overexpressing human PD-L1 (CHO-K1/hPD-L1, GenScript, M00543) or CHO-K1 cell strains overexpressing cynomolgus monkey PD-L1 (CHO-K1/cynoPD-L1, GenScript, M00573). Briefly, the PD-L1 cells were digested and resuspended in an F-12K complete medium, and the cell density was adjusted to 1×10⁶ cells/mL. The cells were seeded in a 96-well V-bottom plate (Corning, 3894) at 100 μL/well, followed by the addition of the test antigen-binding proteins serially diluted 5-fold with concentrations that were twice the final concentrations at 100 μL/well. The mixtures were well mixed. The highest final concentration of the antigen-binding proteins was 100 nM. A total of 8 concentrations were set. An isotype antibody hIgG1 iso was used as a control. The cells were incubated away from light at 4° C. for 1 h. Thereafter, the cells in each well were rinsed twice with 100 μL of pre-cooled PBS, and centrifuged at 500 g at 4° C. for 5 min, and then the supernatant was discarded. Then 100 μL of a fluorescent secondary antibody (goat anti-human IgG (H+L) secondary antibody, Alexa Fluor 488 conjugate, Invitrogen, A11013, diluted at the ratio of 1:1000) was added to each well. The plate was incubated away from light at 4° C. for 30 min. The cells in each well were then rinsed twice with 200 μL of pre-cooled PBS and centrifuged at 500 g at 4° C. for 5 min, and then the supernatant was discarded. Finally, a pre-cooled PBS was added at 200 μL/well to resuspend the cells. Fluorescence signal values were read using a BD FACS CANTOII. Fluorescence signal values were read using a flow cytometer BD FACS CANTOII or FACS ACEA, and the data were processed and analyzed using FlowJo v10 (FlowJo, LLC) software. The data were processed and analyzed by plotting using GraphPad Prism 8 software, and binding curves, EC50 values and other parameters were acquired through four-parameter nonlinear fitting.
(In flow cytometry, cells or beads pass a laser one at a time.)

Experiment [2] concerns the target T2, cynomolgus monkey PD-L1 on CHO-K1 cells overexpressing cynomolgus monkey PD-L1 (cynomolgus monkey, UniProt G7PSE7 19-290).
T2 construct: also called CHO-K1/cynoPD-L1; GenScript M00573
Briefly: flow cytometry on CHO-K1 cells overexpressing cynomolgus monkey PD-L1 (CHO-K1/cynoPD-L1). As to the method: as §1

Experiment [3] has as its target T1, human PD-L1 on CHO-K1 cells …. Briefly: flow cytometry on CHO-K1 cells overexpressing human PD-L1 (CHO-K1/hPD-L1). As to the method:
as §1
The source holds these as a separate data set.

Experiment [4] has the same target. Briefly: flow cytometry on CHO-K1 cells overexpressing human PD-L1 (CHO-K1/hPD-L1) [continued) F]. As to the method: as §1
For experiment [5], the target named is T2, cynomolgus monkey PD-L1 on CHO-K1 cells …. Briefly: flow cytometry on CHO-K1 cells overexpressing cynomolgus monkey PD-L1 (CHO-K1/cynoPD-L1). The procedure:
as §1
The source holds these as a separate data set.

For experiment [6], the target named is T3, human PD-L1 protein with histidine tag (ACROBiosystems #PD-1-H5258) (human, UniProt Q9NZQ7 19-238).
T3 construct: Bought protein; also called His PD-L1; human PD-L1 proteins; not shown: histidine tag
T3 sequence (Q9NZQ7 19-238 limits assumed): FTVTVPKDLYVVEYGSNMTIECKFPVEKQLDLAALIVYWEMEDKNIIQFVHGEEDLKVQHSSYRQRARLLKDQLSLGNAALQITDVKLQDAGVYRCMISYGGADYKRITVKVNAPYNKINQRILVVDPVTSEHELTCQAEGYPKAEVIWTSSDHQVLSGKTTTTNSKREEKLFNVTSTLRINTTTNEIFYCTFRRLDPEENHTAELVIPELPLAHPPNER
Briefly: BLI (Octet Red96e); His-tagged human PD-L1 captured on HIS1K sensor, antibody at 60 nM; 1:1 fit. As to the method:
In this example, affinity determination was performed on the affinity-matured mutants of PR002082 using an Octet Red96e instrument. […] The binding kinetics between the antigen and the antibody was analyzed by the biolayer interferometry (BLI) technique using an Octet molecular interaction analyzer (ForteBio, model: Octet Red96e).
When the affinity of the antigen for the antibody was determined, the rotation speed of the sensor was set at 1000 rpm/min. The 2 HIS1K sensors placed in a column were first equilibrated for 10 min in test buffer, then His PD-L1 was captured with the HIS1K sensor at a capture height of 0.9-1.1 nm, then the HIS1K sensor was equilibrated for 2 min in the test buffer, then the HIS1K sensor was bound to the antigen-binding protein (60 nM and 0 nM) for 3 min, and finally the mixture was dissociated for 15 min. The HIS1K sensor was immersed in a 10 mM glycine solution (pH 1.5) for regeneration to elute the proteins bound to the sensor.
When data analysis was performed using Octet Data Analysis software (Fortebio, version 11.0), the reference signals were subtracted by a single reference mode (reference well), the data were fitted by a “1:1 Local/full fitting” method, and the kinetic parameters of the binding of the antigen to the antibody were calculated to obtain Kₒₙ (1/Ms) values, Kdis (1/s) values and KD (M) values.
A general note: BLI is a label-free optical method that tracks binding on a fibre tip over time.

Experiment [7] has as its target T1, human PD-L1 on CHO-K1 cells …. Briefly: flow cytometry on CHO-K1 cells overexpressing human PD-L1 (CHO-K1/hPD-L1) [continued) D]. The procedure: as §1
Experiment [8] has the same target. Briefly: flow cytometry on CHO-K1 cells overexpressing human PD-L1 (CHO-K1/hPD-L1) [continued) E]. The procedure: as §1

Read-outs that look alike come from different tables or passages of the source.

T2 sequence (G7PSE7 entry or part of it limits assumed): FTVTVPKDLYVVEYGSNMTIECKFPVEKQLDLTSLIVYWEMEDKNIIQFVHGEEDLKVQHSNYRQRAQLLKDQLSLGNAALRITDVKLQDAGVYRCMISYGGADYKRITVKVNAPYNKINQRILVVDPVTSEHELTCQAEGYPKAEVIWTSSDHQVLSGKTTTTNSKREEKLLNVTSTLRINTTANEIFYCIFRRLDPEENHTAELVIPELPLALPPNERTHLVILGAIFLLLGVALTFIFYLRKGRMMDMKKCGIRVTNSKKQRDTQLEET
T1 sequence (Q9NZQ7 19-290): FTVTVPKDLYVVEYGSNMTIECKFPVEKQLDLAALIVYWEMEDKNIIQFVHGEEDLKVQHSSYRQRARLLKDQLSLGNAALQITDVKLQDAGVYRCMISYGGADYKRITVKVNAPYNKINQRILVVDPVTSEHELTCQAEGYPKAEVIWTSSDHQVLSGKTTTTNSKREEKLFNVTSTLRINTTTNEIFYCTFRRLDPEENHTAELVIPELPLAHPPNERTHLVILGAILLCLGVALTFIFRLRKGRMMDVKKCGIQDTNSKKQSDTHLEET

B1: PR000960 (antibody, human IgG1, V domains shown)
VH: QVQLVESGGGVVQPGMSLRLSCAASGFNFSNYGMYWVRQAPGKGQEWVAIIWYDGTKKHYADSVKGRFTISRDNSKNTLYLEMNSLRVEDTAVYYCAKNRAIFGVVPDASDIRGQGTMVTVSS
notes: Heavy-chain-only antibody (HCAb): human VH fused to human IgG1 Fc; no light chain; also called anti-PD-L1 HCAb antibody
The EC50 is the concentration at which the effect is half-maximal. Take B1: the EC50 in experiment [1] amounted to 0.79 nM; in experiment [2] it was 0.421 nM; in experiment [3], 3 nM. Further, the “Maximum MFI” value was found to be 23700 MFI in experiment [1], 8440 MFI in experiment [2] and 3080 MFI in experiment [3].

B2: PR006246 (antibody, human IgG1, V domains shown)
VH: QVQLVESGGGVVQPGMSLRLSCAASGFDFSSYGMYWVRQAPGKGQEWVASIRYTGTEKHYADSVKGRFTISRDNSKNTLYLEMNSLRVEDTAVYYCAKNRAIFGVIPDDSDIRGQGTMVTVSS
notes: The HC entry is used
As usually defined, the Kd is the equilibrium constant for the complex coming apart. By koff is commonly meant the first-order rate constant of dissociation. The term kon denotes the second-order rate constant of association. Turning to B2, in experiment [4], a half-maximal response (EC50) required 0.764 nM and the “Maximum MFI” value amounted to 396000 MFI. Besides, in experiment [5], the concentration for a half-maximal effect (EC50) is 0.736 nM and the “Maximum MFI” value was determined as 11600 MFI. Further, in experiment [6], binding was characterised by a dissociation constant (Kd) of 0.546 nM, the off-rate (koff) amounted to 0.000164 s⁻¹ and the association rate constant (kon) worked out at 301000 M⁻¹ s⁻¹.

B3: PR006248 (antibody, human IgG1, V domains shown)
VH: QVQLVESGGGVVQPGMSLRLSCAASGFDFSSYGMYWVRQAPGKGQEWVASIRYTGTEKHYADSVKGRFTISRDNSKNTLYLEMNSLRVEDTAVYYCAKNRALFGVIPDDSDIRGQGTMVTVSS
notes: The HC entry is used
B3: in experiment [4], a half-maximal effect (EC50) was put at 0.606 nM and the “Maximum MFI” value is 404000 MFI. In experiment [5], the EC50 is 0.717 nM and the “Maximum MFI” value is 11500 MFI. Further, in experiment [6], binding was put at a Kd of 0.634 nM, the koff is 0.000115 s⁻¹ and the kon was 182000 M⁻¹ s⁻¹.

B4: PR002079 (antibody, human IgG1, V domains shown)
VH: QVQLVESGGGVVQPGMSLRLSCAASGFTFSNYGMYWVRQAPGKGQEWVAIIWYDGTKKHYADSVKGRFTISRDNSKNTLYLEMNSLRVEDTAVYYCAKNRAIFGVVPDASDIRGQGTMVTVSS
notes: HCAb; also called PTM variant of PR000960 (N28T)
With B4, the results for the half-maximal effective concentration (EC50) in experiment [1] and in experiment [2] were 0.83 nM and 0.376 nM, respectively. Besides, in experiment [1], the “Maximum MFI” value is 24600 MFI.

B5: PR005872 (antibody, human IgG1, V domains shown)
VH: QVQLVESGGGVVQPGMSLRLSCAASGFTFSSYGMYWVRQAPGKGQEWVASIRYTGTEKHYADSVKGRFTISRDNSKNTLYLEMNSLRVEDTAVYYCAKNRAIFGVIPDDSDIRGQGTMVTVSS
notes: The HC entry is used
Regarding B5, in experiment [5], the half-maximal effective concentration (EC50) amounted to 0.733 nM and the “Maximum MFI” value was 11800 MFI. Further, in experiment [6], binding was put at a Kd of 0.861 nM, the dissociation rate constant (koff) worked out at 0.000187 s⁻¹ and the kon turned out to be 218000 M⁻¹ s⁻¹. Besides, in experiment [7], the EC50 was determined as 0.787 nM and the “Maximum MFI” value turned out to be 385000 MFI.

B6: PR005878 (antibody, human IgG1, V domains shown)
VH: QVQLVESGGGVVQPGMSLRLSCAASGFTFSSYGMYWVRQAPGKGQEWVASIRYTGTEKHYADSVKGRFTISRDNSKNTLYLEMNSLRVEDTAVYYCAKNRALFGVIPDDSDIRGQGTMVTVSS
notes: The HC entry is used
As for B6, in experiment [4], a half-maximal effect (EC50) was put at 1.08 nM and the “Maximum MFI” value came out at 419000 MFI. In addition, in experiment [5], the EC50 was found to be 0.894 nM and the “Maximum MFI” value turned out to be 11700 MFI. In experiment [6], this molecule showed a Kd of 0.671 nM, a dissociation rate constant (koff) of 0.000121 s⁻¹ and an on-rate (kon) of 180000 M⁻¹ s⁻¹. In experiment [7], the concentration for a half-maximal effect (EC50) was determined as 0.944 nM and the “Maximum MFI” value came to 379000 MFI.

B7: PR001061 (antibody, human IgG1, V domains shown)
VH: EVQLLESGGGVVQPGRSLRLSCAASGFNFSSYGMYWVRQAPGKGQEWVAIIWYDGSRKHYADSVKGRFTISRDNSKNTLYLEMNSLRAEDTAMYYCAKNRAIFGVVPDASDIRGQGTMVTVSS
notes: as for B1
As for B7, in experiment [2], the 50% effective concentration (EC50) is 0.4 nM and the “Maximum MFI” value was found to be 8840 MFI. Also, in experiment [3], the concentration for a half-maximal effect (EC50) came out at 2.31 nM and the “Maximum MFI” value was 3090 MFI.

B8: PR005875 (antibody, human IgG1, V domains shown)
VH: QVQLVESGGGVVQPGMSLRLSCAASGFTFSSYGMYWVRQAPGKGQEWVASIRYTGTEKHYADSVKGRFTISRDNSKNTLYLEMNSLRVEDTAVYYCAKNRALFGVIPDASDIRGQGTMVTVSS
notes: The HC entry is used
For B8, in experiment [5], the EC50 stood at 0.774 nM and the “Maximum MFI” value came out at 11500 MFI. In experiment [6], binding was put at a Kd of 1.04 nM, the koff came out at 0.000179 s⁻¹ and the association rate constant (kon) was determined as 172000 M⁻¹ s⁻¹. For the same molecule, in experiment [7], the midpoint of the response, the EC50, lay at 0.974 nM and the “Maximum MFI” value was 372000 MFI.

B9: PR001058 (antibody, human IgG1, V domains shown)
VH: EVQLVESGGGVVQPGRSLRLSCAASGFTFSSYGMYWVRQAPGKGQEWVAIIWYDGTKKHYADSVKGRFTISRDNSKNTLYLEMNSLRVEDTAVYYCAKNRAIFGVVPDASDIRGQGTMVTVSS
notes: as for B1
With B9, the results for the EC50 in experiment [2] and in experiment [3] were 0.4 nM and 3.33 nM, respectively. For the same molecule, the “Maximum MFI” value in experiment [2] worked out at 8480 MFI.

B10: PR001065 (antibody, human IgG1, V domains shown)
VH: EVQLVESGGGVVQPGRSLRLSCAASGFNFSSYGMYWVRQAPGKGQEWVAIIWYDGTKKHYADSVKGRFTISRDNSKNTLYLEMNSLRVEDTAVYYCAKNRAIFGVVPDASDIRGQGTMVTVSS
notes: as for B1
Take B10: the concentration for a half-maximal effect (EC50) in experiment [2] is 0.7 nM; in experiment [3] it was 2.67 nM. Moreover, the “Maximum MFI” value turned out to be 8780 MFI in experiment [2] and 3000 MFI in experiment [3].

B11: PR005263 (antibody, human IgG1, V domains shown)
VH: QVQLVESGGGVVQPGMSLRLSCAASGFTFSSYGMYWVRQAPGKGQEWVASIRYTGTEKHYADSVKGRFTISRDNSKNTLYLEMNSLRVEDTAVYYCAKNRAIFGVVPDASDIRGQGTMVTVSS
notes: The HC entry is used
On to B11, for which, in experiment [8], the EC50 worked out at 0.914 nM and the “Maximum MFI” value was found to be 363000 MFI. In experiment [5], the EC50 worked out at 1.19 nM and the “Maximum MFI” value turned out to be 11700 MFI. In experiment [6], this molecule showed a Kd of 1.94 nM, an off-rate constant (koff) of 0.000227 s⁻¹ and a kon of 117000 M⁻¹ s⁻¹.

The record behind these values is patent US20240269276A1 (HARBOUR BIOMED SHANGHAI, published 2024).
